These results are taken from patent US5679639.

Assay [1] deals with activated protein C (APC) (human).
In assay [2] the target is Factor Va (activated Factor V).
Assay [3] addresses human activated Factor X (Xa) (human).
Assay [4] has the same target. The source holds these as a separate data set.
In assay [5] the target is Factor Va (activated Factor V). The source holds these as a separate data set.
The target of assay [6] is Factor IXa (Homo sapiens (Human)).
For assay [7] the target is unchanged. On the set-up: unit not given beside the values.
In assay [8] the target is human activated Factor X (Xa) (human). The source holds these as a separate data set.
Assay [9] has as its target activated protein C (APC) (human). This is another data set of the same source.
Assay [10] concerns the target Factor Va (activated Factor V). The source holds these as a separate data set.
The target in assay [11] is activated protein C (APC) (human). This is another data set of the same source.
In assay [12] the target is Factor Va (activated Factor V). The source holds these as a separate data set.
Assay [13] deals with Factor Va (activated Factor V). This is another data set of the same source.
Assay [14] has as its target activated protein C (APC) (human). The source holds these as a separate data set.
Assay [15] has the same target. This is another data set of the same source.

Where two headings read alike, the source gives them in different places. No end group written: not given here.

In turn, synthetic peptide PC48-62 yielded an Inhibition of APC (%), Xa-1 stage coagulation assay in NHP, 500 µM peptide in [1] of 0%.
For the molecule synthetic peptide PT473-487, the IC50, prothrombinase assay in the presence of Factor Va (1 nM Xa, 0.4 nM Va, 1.2 uM prothrombin) in assay [2] is 10 µM. The same molecule had an IC50, Factor Xa-1 stage clotting assay in assay [3] of 25 µM.
In [1], synthetic peptide PC110-124 showed an Inhibition of APC (%), Xa-1 stage coagulation assay in NHP, 500 µM peptide of 0%.
On to synthetic peptide PT557-571, for which, in [4], the IC50, prothrombinase assay in the absence of Factor Va stood at 80 µM and the IC50, prothrombinase assay in the presence of Factor Va is 40 µM. The same molecule displayed an IC50, Factor Xa-1 stage clotting assay in [3] of 50 µM.
In assay [3], synthetic peptide PT463-478 returned an IC50, Factor Xa-1 stage clotting assay of more than 500 µM.
In assay [1], synthetic peptide PC65-79 yielded an Inhibition of APC (%), Xa-1 stage coagulation assay in NHP, 500 µM peptide of 0%.
For activated protein C (APC) (enzyme), the rate of Factor Va inactivation (% Vi/min), 5 nM APC and 40 nM Va, no phospholipids in [5] is 4 % Vi/min.
On to KLGDDLLQCHPAVKF-NH2 (also: native Cys substituted by Ser or Gly, which position not given here) [synthetic peptide PC125-139], for which, in [1], the Inhibition of APC (%), Xa-1 stage coagulation assay in NHP, 500 µM peptide came to 30%.
KVSRYVNWIKEKTKL-NH2 [synthetic peptide IX400-414]: the IC50, tenase assay in the presence of Factor VIIIa in assay [6] was in the range of 100 to 140 µM. In [7], this molecule came in with an IC50, Factor IXa-1 stage clotting assay of 50.
In turn, DTLAFWSKHVDGDQC-NH2 (also: native Cys substituted by Ser or Gly, which position not given here) [synthetic peptide PC36-50] showed an Inhibition of APC (%), Xa-1 stage coagulation assay in NHP, 500 µM peptide in [1] of 0%.
For HKGRSALVLQYLRVPL-NH2 [synthetic peptide IX315-330], in assay [6], the IC50, tenase assay (Factor Xa generation) in the presence of Factor VIIIa is 2 µM and the IC50, tenase assay in the absence of VIIIa was 40 to 60 µM. Moreover, the IC50, Factor IXa-1 stage clotting assay in assay [7] was determined as 30.
Molecule EKGRQSTRLKMLEVPY-NH2 [synthetic peptide X329-344] came in with an IC50, Factor Xa-1 stage clotting assay in assay [3] of 500 µM.
YGIYTKVSRYVNWIK-NH2 [synthetic peptide IX395-409]: in assay [6], the IC50, tenase assay (Factor Xa generation) in the presence of Factor VIIIa was 6 µM and the IC50, tenase assay in the absence of VIIIa fell in the range of 40 to 60 µM. The IC50, Factor IXa-1 stage clotting assay in [7] worked out at 25.
With LVLQYLRVPLVDRAT-NH2 [synthetic peptide IX321-335], the IC50, tenase assay in the presence of Factor VIIIa in assay [6] is 100 to 140 µM. The IC50, Factor IXa-1 stage clotting assay in [7] worked out at 30.
Regarding MHKLREGKWRPKSR-NH2 [scrambled peptide with a randomized sequence of residues 142-155], the Factor Xa clotting activity in NHP (0.15 nM factor Xa) in [8] was found to be 37%. Further, the APC amidolytic activity towards S-2366, change in A405/5 minutes (none: 0.374) (A405/5 minutes) in [9] stood at 0.364. For the same molecule, the prothrombinase activity in the presence of Factor Va in assay [10] worked out at 40%.
VLNFIKIPVVPHNEC-NH2 [synthetic peptide PC317-331]: the IC90** (concentration of peptide that inhibits 90% of APC anticoagulant activity), mean of APTT and Xa-1 stage coagulation assays in NHP in assay [11] came out at 500 µM.
KHVDGDQCLVLPLEH-NH2 (also: native Cys substituted by Ser or Gly, which position not given here) [synthetic peptide PC43-57]: the Inhibition of APC (%), Xa-1 stage coagulation assay in NHP, 500 µM peptide in [1] amounted to 0%.
Consider GRPWKRMEKKRSHLC-NH2 [synthetic peptide PC142-155 with an additional carboxy-terminal cysteine], for which the prothrombinase activity in the presence of Factor Va in assay [12] is 40 µM. In assay [8], the Factor Xa clotting activity in NHP (0.15 nM factor Xa) stood at 10 µM. Also, in assay [9], the APC amidolytic activity towards S-2366, change in A405/5 minutes (none: 0.374) (A405/5 minutes) worked out at 0.344. This molecule yielded an Inhibition of APC (%), Xa-1 stage coagulation assay in NHP, 500 µM peptide in [1] of 80%. In assay [13], this molecule returned an APC-catalyzed inactivation of Factor Va in the absence of phospholipids of 87% and a half-maximal inhibition of the APC-catalyzed inactivation of Factor Va, with phospholipid vesicles of 50 µM. In [14], this molecule registered a 50% inhibition of APC anticoagulant activity, Xa-1-stage coagulation assay in NHP of 25 µM and a 50% inhibition of APC anticoagulant activity, Xa-1-stage coagulation assay in protein S-depleted plasma of 5 µM.
For the molecule VKFTIRVFNPRNLKI-NH2 [control peptide with a randomized sequence of residues 311-325], in assay [8], the Factor Xa clotting activity in NHP (0.15 nM factor Xa) was 30%.
Molecule HPAVKFPCGRPWKRM-NH2 (also: native Cys substituted by Ser or Gly, which position not given here) [synthetic peptide PC134-148] yielded an Inhibition of APC (%), Xa-1 stage coagulation assay in NHP, 500 µM peptide in assay [1] of 66%. The 50% inhibition of APC anticoagulant activity, Xa-1-stage assay in NHP in assay [14] stood at 250 µM.
Consider KRNRTFVLNFIKIPV-NH2 [synthetic peptide PC311-325], for which the prothrombinase activity in the presence of Factor Va (1 nM Xa, 0.4 nM Va, 1.2 µM prothrombin) in [12] amounted to 8 µM. In assay [5], this molecule registered an APC-catalyzed inactivation of Factor Va in the absence of phospholipids of 87% and a half-maximal inhibition of the APC-catalyzed inactivation of Factor Va, with phospholipid vesicles of 6 µM. The same molecule showed a Factor Xa clotting activity in NHP (0.15 nM factor Xa) in assay [8] of 7 µM. The APC amidolytic activity towards S-2366, change in A405/5 minutes (none: 0.374) (A405/5 minutes) in [9] amounted to 0.342. The molecule also had a 50% inhibition of APC anticoagulant activity in APTT and Xa-1-stage assays in NHP and PSDP in assay [15] of 7 to 20 µM. In assay [11], this molecule had an IC90** (concentration of peptide that inhibits 90% of APC anticoagulant activity), mean of APTT and Xa-1 stage coagulation assays in NHP of 50 µM.
QVVNLPIVERPVSKD-NH2 (not fully specified) [synthetic peptide PT481-495]: the IC50, Factor Xa-1 stage clotting assay in [3] is more than 500 µM.
For the molecule VTAFLKWIDRSMKTR-NH2 [synthetic peptide X415-429], the IC50, prothrombinase assay with or without Factor Va in assay [4] is 500 µM. For the same molecule, the IC50, tenase assay in the presence of VIIIa in assay [6] came out at 45 µM. For the same molecule, in [7], the IC50, Factor IXa-1 stage clotting assay came out at 0. Besides, the IC50, Factor Xa-1 stage clotting assay in [3] turned out to be 115 µM.
The molecule APGYKLGDDLLQCHP-NH2 (also: native Cys substituted by Ser or Gly, which position not given here) [synthetic peptide PC121-135] yielded an Inhibition of APC (%), Xa-1 stage coagulation assay in NHP, 500 µM peptide in assay [1] of 0%.
RSGWEGRFCQREVSF-NH2 (also: native Cys substituted by Ser or Gly, which position not given here) [synthetic peptide PC81-95] returned an Inhibition of APC (%), Xa-1 stage coagulation assay in NHP, 500 µM peptide in assay [1] of 40%.
For ARKGKYGIYTKVTAF-NH2 [synthetic peptide X404-418], the IC50, prothrombinase assay in the presence of Factor Va (1 nM Xa, 0.4 nM Va, 1.2 uM prothrombin) in assay [2] came out at 75 µM. For the same molecule, the IC50, tenase assay in the presence of VIIIa in [6] is 150 µM. In [7], this molecule registered an IC50, Factor IXa-1 stage clotting assay of 50. This molecule gave an IC50, Factor Xa-1 stage clotting assay in [3] of 50 µM.
